Patent publication US20100260668A1 (published 2010)
Values joined by “and” are separate entries in the source; they are usually repeats but may differ in a detail not shown here. Equal values may be shown once. Blank lines part the entries; values can stand above or below the binder they belong to.

Tests used:
biotinylated ErbB3 = biotinylated ErbB3 (UniProt P21860 20-643, limits assumed, biotinylated); experiment: capture ELISA, antibody captured by anti-human IgG Fc, biotinylated ErbB3
Experimental: The plates were washed with PBS containing 0.05% Tween 20 three times and blocked with 200 μl/well of 1% BSA/PBS for 1 hour at room temperature. Fifty μl of 5 nM DVD-Ig or antibody were added to each well and incubated for 1 hour at room temperature. […] The wells were washed three times, and 100 μl of ULTRA-TMB ELISA (Pierce, Rockford, Ill.) were added per well.

HGF-His tag = molecular target: T1, HGF-His tag (UniProt P14210 32-728); experiment: direct bind ELISA (ref Ab)
T1 construct: Bought antigen coated on the ELISA plate; not shown: His tag

IGF2 [1] = molecular target: T2, IGF2 (UniProt P01344 25-91, limits assumed); experiment: cell-based or functional assay
IGF1 [2] = molecular target: T3, IGF1 (UniProt P05019 49-118, limits assumed); experiment: cell-based or functional assay
IGF2 [3] = molecular target: T2, IGF2; experiment: cell-based or functional assay; remark: listed apart in the source
IGF1 [4] = molecular target: T3, IGF1; experiment: cell-based or functional assay; remark: listed apart in the source
IGF2 [5] = molecular target: IGF2 (UniProt P01344 25-91); experiment: cell-based or functional assay
hIGF1 = hIGF1 (human, UniProt P05019 49-118); experiment: cell-based or functional assay
PlGF = molecular target: T4, PlGF (UniProt P49763-2 21-149, limits assumed); experiment: direct bind ELISA, reference antibody
T4 construct: bought antigen coated on the ELISA plate; also called Placental GF
T4 sequence (looked up): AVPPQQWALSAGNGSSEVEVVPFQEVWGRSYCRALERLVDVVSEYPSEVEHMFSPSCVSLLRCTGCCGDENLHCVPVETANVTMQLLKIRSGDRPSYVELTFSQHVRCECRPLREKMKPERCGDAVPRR

[6] = molecular target: T5, RON (MSP Receptor ECD-His tag) (UniProt Q04912 25-957, limits assumed); experiment: Direct Bind ELISA, antigen on plate; N-terminal VD
T5 construct: extracellular domain; Bought reagent

[7] = molecular target: recombinant human VEGF165 (human, UniProt P15692-4 27-191); experiment: cell-based or functional assay
[8] = molecular target: T6, insulin-like growth factor receptor (IGF1R) (human, UniProt P08069 31-1367); experiment: cell-based or functional assay
[9] = molecular target: T6, insulin-like growth factor receptor …; experiment: cell-based or functional assay; remark: listed apart in the source
[10] = molecular target: T6, insulin-like growth factor receptor …; experiment: cell-based or functional assay; remark: listed apart in the source
HGF (HGF-His tag) = molecular target: T7, HGF (HGF-His tag) (UniProt P14210 32-728); experiment: Direct Bind ELISA, antigen on plate; C-terminal VD
T7 construct: Bought reagent
T7 sequence (P14210 32-728 limits assumed): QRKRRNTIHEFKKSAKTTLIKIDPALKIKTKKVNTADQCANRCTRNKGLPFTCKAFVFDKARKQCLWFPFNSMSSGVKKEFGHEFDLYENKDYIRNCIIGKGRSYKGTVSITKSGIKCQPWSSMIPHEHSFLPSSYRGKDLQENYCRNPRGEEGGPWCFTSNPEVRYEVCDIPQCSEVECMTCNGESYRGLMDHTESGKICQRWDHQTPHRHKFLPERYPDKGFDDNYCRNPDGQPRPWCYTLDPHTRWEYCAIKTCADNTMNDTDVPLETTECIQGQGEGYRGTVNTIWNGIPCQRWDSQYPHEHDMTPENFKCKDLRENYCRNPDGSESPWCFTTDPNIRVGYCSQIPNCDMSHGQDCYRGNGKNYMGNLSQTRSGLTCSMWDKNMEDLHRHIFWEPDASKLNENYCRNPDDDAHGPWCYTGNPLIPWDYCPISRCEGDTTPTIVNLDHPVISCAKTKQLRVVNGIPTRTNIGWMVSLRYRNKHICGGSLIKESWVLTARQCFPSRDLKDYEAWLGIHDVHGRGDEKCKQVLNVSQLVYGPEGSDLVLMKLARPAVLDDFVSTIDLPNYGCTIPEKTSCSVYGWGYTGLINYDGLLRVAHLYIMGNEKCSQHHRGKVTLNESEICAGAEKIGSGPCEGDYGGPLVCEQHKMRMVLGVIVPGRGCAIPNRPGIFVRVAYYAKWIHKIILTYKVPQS

T1 sequence (P14210 32-728 limits assumed): as above
Sequence of recombinant human VEGF165 (P15692 other isoform, or with tags, fused parts or gaps limits assumed): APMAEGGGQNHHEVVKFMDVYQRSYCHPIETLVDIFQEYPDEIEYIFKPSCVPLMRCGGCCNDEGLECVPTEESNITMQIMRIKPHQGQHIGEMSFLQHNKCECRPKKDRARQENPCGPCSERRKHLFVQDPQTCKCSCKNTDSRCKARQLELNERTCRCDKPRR

B1: AB063 (antibody, human IgG1, kappa, V domains shown)
VH: EVQLVESGGGLVQPGGSLRLSCAASGFTFSIYSMNWVRQAPGKGLEWVSYISSSSSTIYYADSVKGRFTISRDNAKNSLYLQMNSLRDEDTAVYYCARDRGDFDAFDIWGQGTMVTVSS
VL: DIQMTQSPSSLSASVGDRVTITCQASQDITNYLNWYQQKPGKAPKLLIYDASNLETGVPSRFSGSGSGTDFTFTISSLQPEDIATYNCQQCENFPITFGQGTRLEIKR
EC50 (biotinylated ErbB3): 0.67 nM

B2: AB012 (antibody, human IgG1, kappa, V domains shown)
VH: QVQLVESGGGLVKPGGSLRLSCAASGFTFSDYYMSWIRQAPGKGLEWVSYISSSGSTIYYADSVKGRFTISRDNAKNSLYLQMNSLRAEDTAVYYCARDEYNSGWYVLFDYWGQGTLVTVSS
VL: DIQMTQSPSSVSASVGDRVTITCRASQGISSWLAWYQQKPGKAPNLLIYEASSLQSGVPSRFGGSGSGTDFTLTISSLQPEDFATYYCQQANGFPWTFGQGTKVEIKR
notes: Vectors V1/V2
EC50 (HGF-His tag): 0.15 nM and 0.17 nM and 0.16 nM

B3: AB010 (antibody, human IgG1, lambda, V domains shown)
VH: QVQLVQSGAEVKKPGASVKVSCKASGYTFTSYDINWVRQATGQGLEWMGWMNPNSGNTGYAQKFQGRVTMTRNTSISTAYMELSSLRSEDTAVYYCARDPYYYYYGMDVWGQGTTVTVSS
VL: QSVLTQPPSVSAAPGQKVTISCSGSSSNIENNHVSWYQQLPGTAPKLLIYDNNKRPSGIPDRFSGSKSGTSATLGITGLQTGDEADYYCETWDTSLSAGRVFGGGTKLTVLG
H929, IGF1R line proliferation inhibition IC50 (IGF2 [1]): 1.6 nM
H929, IGF1R line proliferation inhibition, max (IGF2 [1]): 70 % max
H929, IGF1R line proliferation inhibition IC50 (IGF1 [2]): 1.6 nM
H929, IGF1R line proliferation inhibition, max (IGF1 [2]): 70 % max
A431, EGFR line proliferation inhibition IC50 (IGF2 [3]): > 67 nM
A431, EGFR line proliferation inhibition, max (IGF2 [3]): 10 % max
A431, EGFR line proliferation inhibition IC50 (IGF1 [4]): > 67 nM
A431, EGFR line proliferation inhibition, max (IGF1 [4]): 10 % max

B4: AB010 (antibody, human IgG1, lambda, V domains shown)
VH: B3 VH
VL: B3 VL
pIGFR1 Cellular Assay (IGF2 induced IC50 nM) (IGF2 [5]): 0.3 nM
pIGF1R Cellular Assay (hIGF1 Neutralization IC50 nM) (hIGF1): 1.7 nM

B5: AB062 (antibody, human IgG1, kappa, V domains shown)
VH: QVQLQQWGAGLLKPSETLSLTCAVYGGSFSGYYWSWIRQPPGKGLEWIGEINHSGSTNYNPSLKSRVTISVETSKNQFSLKLSSVTAADTAVYYCARDKWTWYFDLWGRGTLVTVSS
VL: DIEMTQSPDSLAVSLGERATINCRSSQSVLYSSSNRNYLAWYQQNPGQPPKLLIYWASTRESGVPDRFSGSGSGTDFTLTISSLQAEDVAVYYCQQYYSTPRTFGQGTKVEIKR
EC50 (biotinylated ErbB3): 0.26 nM

B6: AB047 (antibody, human IgG1, kappa, V domains shown)
VH: QVQLQQSGAELVKPGASVKISCKASGYTFTDYYINWVKLAPGQGLEWIGWIYPGSGNTKYNEKFKGKATLTIDTSSSTAYMQLSSLTSEDTAVYFCVRDSPFFDYWGQGTLLTVSS
VL: DIVLTQSPDSLAVSLGERVTMNCKSSQSLLNSGMRKSFLAWYQQKPGQSPKLLIYWASTRESGVPDRFTGSGSGTDFTLTISSVQAEDVAVYYCKQSYHLFTFGSGTKLEIKR
EC50 (PlGF): 0.13 nM and 0.14 nM and 0.17 nM

B10: AB011 (antibody, human IgG1, kappa, V domains shown)
VH: EVQLLESGGGLVQPGGSLRLSCTASGFTFSSYAMNWVRQAPGKGLEWVSAISGSGGTTFYADSVKGRFTISRDNSRTTLYLQMNSLRAEDTAVYYCAKDLGWSDSYYYYYGMDVWGQGTTVTVSS
VL: DIQMTQFPSSLSASVGDRVTITCRASQGIRNDLGWYQQKPGKAPKRLIYAASRLHRGVPSRFSGSGSGTEFTLTISSLQPEDFATYYCLQHNSYPCSFGQGTKLEIKR
H929, IGF1R line proliferation inhibition IC50 [8]: 0.1 nM
H929, IGF1R line proliferation inhibition, max [8]: 65 % max
GEO, EGFR/IGF1R line proliferation inhibition IC50 [9]: > 67 nM
GEO, EGFR/IGF1R line proliferation inhibition, max [9]: 15 % max
A431, EGFR line proliferation inhibition IC50 [10]: > 67 nM
A431, EGFR line proliferation inhibition, max [10]: 5 % max

B11: AB074 (antibody, human IgG1, kappa, V domains shown)
VH: QVQLKQSGPGLVQPSQSLSITCTVSGFSLTTYGIHWVRQSPGKGLEWLGVMWSGGDTDYDAAFISRLSISKDNSKSQVFFKMNSLQANDTGIYYCARYRFYGMDYWGQGTSVTVSS
VL: AIQMTQSSSSFSVSLGDRVTITCKASEDIYNRFAWYQQKPGNAPRLLISGAASLEAGVPSRFSGSGSGQDYTLSITSLQTEDVATYYCQQYWSTPWTFGGGTKLEIKR
EC50 (PlGF): 0.49 nM

Other lines, results leading:

EC50 [6]: 0.46 nM
B7: DVD048 (RON (seq. 1) and VEGF (seq. 1) DVD-Ig) (bispecific antibody, IgG1)
VH: EVQLVQSGGGLVKPGGSLRLSCAASGFTFSSYAMHWVRQAPGKGLEWVAVISYDGSNKYYADSVKGRFTISRDNSKNTLYLQMNSLRAEDTAVYYCARFSGWPNNYYYYGMDVWGQGTTVTVSSASTKGPEVQLVESGGGLVQPGGSLRLSCAASGYTFTNYGMNWVRQAPGKGLEWVGWINTYTGEPTYAADFKRRFTFSLDTSKSTAYLQMNSLRAEDTAVYYCAKYPHYYGSSHWYFDVWGQGTLVTVSS
VL: DVVMTQSPLSLPVTPGEPASISCRSSQSLLHSNGFNYVDWYLQKPGQSPHLLIYFGSYRASGVPDRFSGSGSGTDFTLKISRVEAEDVGVYYCMQALQTPPWTFGQGTKVEIRRTVAAPDIQMTQSPSSLSASVGDRVTITCSASQDISNYLNWYQQKPGKAPKVLIYFTSSLHSGVPSRFSGSGSGTDFTLTISSLQPEDFATYYCQQYSTVPWTFGQGTKVEIKR
notes: HC vector V1 (wild-type hIgG1 constant), LC vector V2 (kappa constant); also called DVD048H; DVD048L

A431, EGFR line proliferation inhibition IC50 (IGF2 [3]): > 50 nM
A431, EGFR line proliferation inhibition, max (IGF2 [3]): 0%
A431, EGFR line proliferation inhibition IC50 [7]: > 50 nM
A431, EGFR line proliferation inhibition, max [7]: 0%
A431, EGFR line proliferation inhibition IC50 (IGF1 [4]): > 50 nM
A431, EGFR line proliferation inhibition, max (IGF1 [4]): 0%
B8: DVD041 (bispecific antibody, human IgG1, lambda)
heavy: not shown
light: DIQMTQSPSSLSASVGDRVTITCSASQDISNYLNWYQQKPGKAPKVLIYFTSSLHSGVPSRFSGSGSGTDFTLTISSLQPEDFATYYCQQYSTVPWTFGQGTKVEIKRTVAAPQSVLTQPPSVSAAPGQKVTISCSGSSSNIENNHVSWYQQLPGTAPKLLIYDNNKRPSGIPDRFSGSKSGTSATLGITGLQTGDEADYYCETWDTSLSAGRVFGGGTKLTVLGQPKAAPSVTLFPPSSEELQANKATLVCLISDFYPGAVTVAWKADSSPVKAGVETTTPSKQSNNKYAASSYLSLTPEQWKSHRSYSCQVTHEGSTVEKTVAPTECS

C-terminal VD pIGFR1 Cellular Assay (IGF2 induced IC50 nM) (IGF2 [5]): 1.5 nM
C-terminal VD pIGF1R Cellular Assay (hIGF1 Neutralization IC50 nM) (hIGF1): 16.8 nM
B9: DVD041 (bispecific antibody, human IgG1, lambda)
heavy: not shown
light: B8 light

EC50 (HGF (HGF-His tag)): 185 nM
B12: DVD045 (VEGF (seq. 1) and HGF (seq. 1) DVD-Ig) (bispecific antibody, IgG1)
VH: EVQLVESGGGLVQPGGSLRLSCAASGYTFTNYGMNWVRQAPGKGLEWVGWINTYTGEPTYAADFKRRFTFSLDTSKSTAYLQMNSLRAEDTAVYYCAKYPHYYGSSHWYFDVWGQGTLVTVSSASTKGPQVQLVESGGGLVKPGGSLRLSCAASGFTFSDYYMSWIRQAPGKGLEWVSYISSSGSTIYYADSVKGRFTISRDNAKNSLYLQMNSLRAEDTAVYYCARDEYNSGWYVLFDYWGQGTLVTVSS
VL: DIQMTQSPSSLSASVGDRVTITCSASQDISNYLNWYQQKPGKAPKVLIYFTSSLHSGVPSRFSGSGSGTDFTLTISSLQPEDFATYYCQQYSTVPWTFGQGTKVEIKRTVAAPDIQMTQSPSSVSASVGDRVTITCRASQGISSWLAWYQQKPGKAPNLLIYEASSLQSGVPSRFGGSGSGTDFTLTISSLQPEDFATYYCQQANGFPWTFGQGTKVEIKR
notes: HC vector V1 (wild-type hIgG1 constant), LC vector V2 (kappa constant); also called DVD045H; DVD045L

EC50 (HGF-His tag): 0.48 nM and 0.39 nM and 0.4 nM and 0.41 nM
B13: AB079 (antibody, human IgG1, kappa, V domains shown)
VH: EVQLVQSGAEVKKPGESLKISCKGSGYSFTTYWMHWVRQMPGKGLEWMGEINPTNGHTNYNPSFQGQVTISADKSISTAYLQWSSLKASDTAMYYCARNYVGSIFDYWGQGTLVTVSS
VL: DIQMTQSPSSLSASVGDRVTITCKASENVVSYVSWYQQKPGKAPKLLIYGASNRNTGVPSRFSGSGSGTDFTLTISSLQPEDFATYYCGQSYNYPYTFGQGTKLEIKR
notes: Vectors V1/V2
